3 molecules from paper PMC11455607 can be followed below.

Like-named read-outs stand apart in the source and are kept apart here.

The target of one data set is CRX HD (His) (UniProt O43186 31-107). Nature of the data set: BLI. For orientation: BLI is a label-free optical method that tracks binding on a fibre tip over time.
Data set [1] addresses T1, CRX HD R41Q (UniProt O43186 31-107, R41Q). Nature of the data set: BLI.
Data set [2] deals with T2, CRX HD E42K (UniProt O43186 31-107, E42K). Nature of the data set: BLI.
Another data set addresses CRX HD R90W (UniProt O43186 31-107, R90W). The data set can be described thus: BLI.
Data set [3] has as its target T1, CRX HD R41Q. Nature of the data set: SEC-MALS.
Data set [4] concerns the target T2, CRX HD E42K. Nature of the data set: SEC-MALS. (In general: In gel filtration, larger molecules generally elute earlier.)
The next data set has as its target Cy3-CRX HD (UniProt O43186 31-107). The data set can be described thus: smTIRFM.
In data set [5] the target is T3, Cy3-CRX HD;NRL DBD (;, UniProt O43186;P54845 31-107;128-237, |). The data set can be described thus: smTIRFM.
Data set [6] has as its target T3, Cy3-CRX HD;NRL DBD. The data set can be described thus: smTIRFM. This is another data set of the same source.

T1 sequence (O43186 31-107 R41Q): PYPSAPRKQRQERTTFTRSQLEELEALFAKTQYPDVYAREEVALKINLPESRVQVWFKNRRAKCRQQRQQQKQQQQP
T2 sequence (O43186 31-107 E42K): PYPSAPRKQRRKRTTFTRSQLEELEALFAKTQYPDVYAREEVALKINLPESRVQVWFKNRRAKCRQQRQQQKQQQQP
T3 sequence (O43186 31-107, chain 1 of 2): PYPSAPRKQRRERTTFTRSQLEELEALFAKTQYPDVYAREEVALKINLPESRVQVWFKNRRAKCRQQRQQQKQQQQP
T3 sequence (P54845 128-237, chain 2 of 2): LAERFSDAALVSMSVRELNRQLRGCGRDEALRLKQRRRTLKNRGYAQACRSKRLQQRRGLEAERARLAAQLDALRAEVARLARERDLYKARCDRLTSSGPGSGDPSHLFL
Chain of CRX HD R90W (O43186 31-107 R90W): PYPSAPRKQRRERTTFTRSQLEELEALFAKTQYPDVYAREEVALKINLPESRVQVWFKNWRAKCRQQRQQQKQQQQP
Chain of CRX HD (His) (O43186 31-107): as the sequence (O43186 31-107, chain 1 of 2) above
Chain of Cy3-CRX HD (O43186 31-107): as the sequence (O43186 31-107, chain 1 of 2) above

B1: Ret4 20-mer biotinylated (dsDNA)
DNA 1: CAGGAGCTTAGGAGGGGGAG
DNA 2: CTCCCCCTCCTAAGCTCCTG
With B1, the Kd – broadly, the concentration at which binding is half-saturated – with CRX HD (His) is 430 ± 30 nM; with CRX HD R41Q [1] it was 1250 ± 30 nM; with CRX HD E42K [2], 30 ± 10 nM; with CRX HD R90W, 900 ± 30 nM.

B2: Ret4 21-mer (dsDNA)
DNA 1: CCAGGAGCTTAGGAGGGGGAG
DNA 2: CCTCCCCCTCCTAAGCTCCTG
Take B2: the binding result with CRX HD R41Q [3] and with CRX HD E42K [4] was “binds” in each case.

B3: NRE-Ret4 38-mer biotinylated (dsDNA)
DNA 1: CCAGATGCTGATTCAGCCAGGAGCTTAGGAGGGGGAGG
DNA 2: CCTCCCCCTCCTAAGCTCCTGGCTGAATCAGCATCTGG
As to B3, the Kd stood at 55.1 nM with Cy3-CRX HD, 28 nM with Cy3-CRX HD;NRL DBD [5] and 39.6 nM with Cy3-CRX HD;NRL DBD [6].
